Measured values taken from article PMC12309418, “Human Plastins are Novel Cytoskeletal pH Sensors with a Reduced F-actin Bundling Capacity at Basic pH” (Journal of molecular biology, 2025).

B1: PLS2 ABD1 (a.a. 120-385) (domain or fragment)
chain: EEEKYAFVNWINKALENDPDCRHVIPMNPNTNDLFNAVGDGIVLCKMINLSVPDTIDERTINKKKLTPFTIQENLNLALNSASAIGCHVVNIGAEDLKEGKPYLVLGLLWQVIKIGLFADIELSRNEALIALLREGESLEDLMKLSPEELLLRWANYHLENAGCNKIGNFSTDIKDSKAYYHLLEQVAPKGDEEGVPAVVIDMSGLREKDDIQRAECMLQQAERLGCRQFVTATDVVRGNPKLNLAFIANLFNRYPALHKPENQDI
notes: source: E. coli BL21-CodonPlus(DE3)pLysS, purified (IMAC on cobalt resin, TEV cleavage, Superdex 200); not shown: His6, N-terminal, cleaved
B2: plastin 2 (PLS2), full-length (natural protein)
chain: MARGSVSDEEMMELREAFAKVDTDGNGYISFNELNDLFKAACLPLPGYRVREITENLMATGDLDQDGRISFDEFIKIFHGLKSTDVAKTFRKAINKKEGICAIGGTSEQSSVGTQHSYSEEEKYAFVNWINKALENDPDCRHVIPMNPNTNDLFNAVGDGIVLCKMINLSVPDTIDERTINKKKLTPFTIQENLNLALNSASAIGCHVVNIGAEDLKEGKPYLVLGLLWQVIKIGLFADIELSRNEALIALLREGESLEDLMKLSPEELLLRWANYHLENAGCNKIGNFSTDIKDSKAYYHLLEQVAPKGDEEGVPAVVIDMSGLREKDDIQRAECMLQQAERLGCRQFVTATDVVRGNPKLNLAFIANLFNRYPALHKPENQDIDWGALEGETREERTFRNWMNSLGVNPRVNHLYSDLSDALVIFQLYEKIKVPVDWNRVNKPPYPKLGGNMKKLENCNYAVELGKNQAKFSLVGIGGQDLNEGNRTLTLALIWQLMRRYTLNILEEIGGGQKVNDDIIVNWVNETLREAKKSSSISSFKDPKISTSLPVLDLIDAIQPGSINYDLLKTENLNDDEKLNNAKYAISMARKIGARVYALPEDLVEVNPKMVMTVFACLMGKGMKRV
notes: plastin 2 (PLS2, L-plastin, LCP1), human, full-length (FL) protein; Cloned in pColdI behind a 6xHis tag and TEV site; also called LCP1; L-plastin; source: E. coli BL21-CodonPlus(DE3)pLysS, purified (IMAC on cobalt resin, TEV cleavage, Superdex 200); not shown: His6, N-terminal, cleaved

Columns and labels:
Details in all cases: both partners purified
[1] = molecular target: T1, Skeletal actin, filamentous (F-actin) (rabbit, UniProt P68135 1-377); assay: co-sedimentation; high-speed co-sedimentation (300,000 g, 30 min, 25 °C), 2 uM ABD1 with 0-125 uM F-actin, 10 mM HEPES pH 7.0, 30 mM KCl, 2 mM MgCl2, 0.5 mM EGTA; fraction depleted from the supernatant fit to a binding curve
[2] = molecular target: T1, Skeletal actin, filamentous (F-actin); assay: co-sedimentation; high-speed co-sedimentation (300,000 g, 30 min, 25 °C), 2 uM ABD1 with 0-125 uM F-actin, 10 mM HEPES pH 8.0, 30 mM KCl, 2 mM MgCl2, 0.5 mM EGTA; fraction depleted from the supernatant fit to a binding curve
[3] = molecular target: T1, Skeletal actin, filamentous (F-actin); assay: co-sedimentation; high-speed co-sedimentation (300,000 g, 30 min, 25 °C), 5 uM PLS2 with 0-100 uM F-actin, 10 mM HEPES pH 8.0, 30 mM KCl, 2 mM MgCl2, 0.5 mM EGTA; fraction of PLS2 in the pellet fit to a binding curve
[4] = molecular target: T1, Skeletal actin, filamentous (F-actin); assay: co-sedimentation; high-speed co-sedimentation (300,000 g, 30 min, 25 °C), 5 uM PLS2 with 0-100 uM F-actin, 10 mM HEPES pH 7.0, 30 mM KCl, 2 mM MgCl2, 0.5 mM EGTA; fraction of PLS2 in the pellet fit to a binding curve

Row | Binder | Kd [1] [µM] | Kd [2] [µM] | Kd [3] [µM] | Kd [4] [µM]
1 | B1 | 24.7 | 13.9 | – | –
2 | B2 | – | – | 17.7 | 31.7
